Reference: patent publication US20140289906A1, “Compositions Having Dicamba Decarboxylase Activity and Methods of Use” (priority 2013, published 2014)

Test: 14C assay: 14CO2 capture from [14C]-carboxyl-labeled dicamba with IPTG-induced recombinant E. coli cells
Conditions: for Dicamba Decarboxylase Activity: IPTG-induced recombinant E. coli cells, 14CO2 from [14C]-carboxyl-labeled dicamba; for Enzymatic Detection level: dicamba decarboxylation activity

Row | Molecule | Dicamba Decarboxylase Activity | Enzymatic Detection level
1 | 103 (protein, Plasmodium yoelii yoelii) MAMEIPTEEIKFLKKEDVQNIDLNGMSKKERYEIWRRIPKVELHCHLDLTFSAEFFLKWARKYNLQPNMSDDEILDHYLFTKEGKSLAEFIRKAISVSDLYRDYDFIEDLAKWAVIEKYKEGVVLMEFRYSPTFVSSSYGLDVELIHKAFIKGIKNATELLNNKIHVALICISDTGHAAASIKHSGDFAIKHKHDFVGFDHGGREIDLKDHKDVYHSVRDHGLHLTVHAGEDATLPNLNTLYTAINILNVERIGHGIRVSESDELIELVKKKDILLEVCPISNLLLNNVKSMDTHPIRKLYDAGVKVSVNSDDPGMFLSNINDNYEKLYIHLNFTLEEFMIMNNWAFEKSFVSDDVKSELKALYF | No | No
2 | 98 (protein, Xanthomonas campestris pv.) MAIIDCHGHYTTAPAAHDAFRKAQIAHHDDPQQPAPQYPHISDDALRESIEQHQLRLLRERGADMTIFSPRASTMAHHIGNEAVSQVWTQRCNDLIARVVQLYPHTFIGVCQLPQSPGVPISHSIAELERCVNELGFVGCNLNPDPSGGHWNGVPLTDRAWYPFFEKMVELDVPAMVHVSGSCNANFHATGAHYLNADTTAFMQFLEGDLFRDFPSLRFIIPHGGGAVPYHWGRFRGLADMLGKPPLATHVMRNVFFDTCVYHQPGIDLLFEVIDIDNILFGSEMVGAVRGIDPQTGHYFDDTKRYIDALTISDADKRKVFEGNARRVYPRLDAQLRARGL | No | No
3 | 102 (protein, listed as Lactobacillus plantarum) MATKTFKTLDDFLGTHFIYTYDNGWEYEWYAKNDHTVDYRIHGGMVAGRWVTDQKADIVMLTEGIYKISWTEPTGTDVALDFMPNEKKLHGTIFFPKWVEEHPEITVTYQNEHIDLMEQSREKYATYPKLVVPEFANITYMGDAGQNNEDVISEAPYKEMPNDIRNGKYFDQNYHRLNK | No | No
4 | 106 (protein, listed as Pyrococcus horikoshii) MAGMKFIKNLHVSKLVIDSMKALINGTIYTSFNPLKKVSGLVISHGKVIYAGDSEVAKKIVELSGGEIVDLKGKYVMPAFFDSHLHLDELGMSLEMVDLRGAKSIEELIQRLKRGKGRIIFGFGWDQDELGEWPTRKELNAIDKPVFIYRKCFHVAVANDKMLELLNLTPSKDFDEDTGIIKEKSLEEARKVINERVLTVEDYVYYIKRAQEHLLDLGVKSVSFMSVNEKALRALFYLEREGKLSINVFAYVTPEVLDKLESIGLGRFQGNRLTIAGVKLFTDGSLGARTALLSKPYSDDPSTSGQLVMEREELIRITEKARSLGLDVAIHAIGDKALDVALDVFETTGFPGRIEHASLVRDDQLERVKNLKVRLSVQPHFIISDWWIVERVGEERVKWVYRFKDLMKVAELGFSTDSPIEPADPWLTVDAAVNRGKGKVKLYELTKDQALDIKDALHSYTYGSARVSLASDIGKLEPGFKAEYIILDRDPLVVK | No | No
5 | 7 (protein, listed as Legionella pneumophila) MAIVDFETHFITEACIDYLTQRQEVPKLVPELNGAYTMCFTPDVSLFHTSALMEELLSLNEQRLAIMDQAGVTIQVLSLTTINGIDSCPGDENKSTALAREVNDQLYSAIQRHPERFKGFASISPYDVKEGVKELERAISQLGFVGWLTHSNFGEDNYLDDKTYWPLLEAAEGLNIPIYLHPNVPIMREFGKYGFALGGSALGFEFDTALCLMRMILGGVFDAFPKLKIMLGHLGETMPFLMERLDHLYRIPDLKAYRPSIQRIPSEVLRQNVYITTSGRFFVPALRYVLEVMGEDRVLFASDYPMESLLDATRFIQDSDLSNQTKQKIFSINAKNLNLI | No | No
6 | 8 (protein, listed as Metarhizium anisopliae) MARGKINFEEAFELPTLADSSREQAALYIAPKDLDRYIYHIKHPLGERLQLANSHGIGYTIYSLTVPGIQGIPDQSKAEQHATTVNDWIANEIKDHRDRLGAFAALSMHDAAQAAAELERCVRQHGFHGALLNNYQHAGPDGETYLFYDQPAYDVFWQKCVELDVPVYLHPAAPAGNYYKQMYAQRKYLVGPPLSFANDVSLHLLGLVTNGVFDRFPKLKVVVGHLGEHIPFDFWRISHWLEDVERPLAAGRGDVMSKKDLLYYFKNNIWVTTSGHFSTPTVRYVADYLGPERIMFSVDTPYETIENGVGWFDGEEDALTRALGGEDGYKKVARENAKKLFKLTKYHDCDA | Low | Low
7 | 101 (protein, listed as Aquifex aeolicus) MAQKIALCITGASGVIYGIKLLQVLEELDFSVDLVISRNAKVVLKEEHSLTFEEVLKGLKNVRIHEENDFTSPLASGSRLVHYRGVYVVPCSTNTLSCIANGINKNLIHRVGEVALKERVPLVLLVREAPYNEIHLENMLKITRMGGVVVPASPAFYHKPQSIDDMINFVVGKLLDVLRIEHNLYKRWRG | No | No
8 | 104 (protein, Plasmodium Vivax) MANILQEPIDFLKKEELKNIDLSQMSKKERYKIWKRIPKCELHCHLDLCFSADFFVSCIRKYNLQPNLSDEEVLDYYLFAKGGKSLGEFVEKAIKVADIFHDYEVIEDLAKHAVFNKYKEGVVLMEFRYSPTFVAFKYNLDIELIHQAIVKGIKEVVELLDHKIHVALMCIGDTGHEAANIKASADFCLKHKADFVGFDHGGHEVDLKEYKEIFDYVRESGVPLSVHAGEDVTLPNLNTLYSAIQVLKVERIGHGIRVAESQELIDMVKEKNILLEVCPISNVLLKNAKSMDTHPIRQLYDAGVKVSVNSDDPGMFLTNINDDYEELYTHLNFTLEDFMKMNEWALEKSFMDSNIKDKIKNLYF | No | No
9 | 93 (protein, listed as Mucilaginibacter paludis) MAKYGKHITINKNMRIVTLEEHISFPEMADQIPKAALGSFGRSEAMQRIAPKLADITGERLKSMDANGISMQVLSVDSSGVNLLSPQQGPAFATQYNDLIANRIAGFEKRFTAFAHLPMTAPFAAADELERAVKEHHFCGAMIRGLTGDQFLDHPQFAPIFERAQKLDVPIYLHPGLPPKGVADIYYSGLPNYSGMAEALACYGWGWHSETALHVLRLLFSGIFDQYPKLKLVIGHMGEMLPMMMARSEKAFKPGNGGANVRTLTDTFRSQVYLTTSGFFTQPPLKIALDTFGIDHVMFSVDYPFSTNEMGIEFLNEIDLPDEEVARIAHGNADKLLNLKA | Low | Low
10 | 99 (protein, listed as Ralstonia solanacearum) MAIIDCHGHFTTAPTALEDWRKRQIANLATPALGPSPDDLKISDDALTEAIRANQLRLMQARGSDLTIFSPRASFMAHHIGDFHTSATWAAICNALCHRVSQLFPDHFVGAAMLPQSPGVDIRTCIPELARCIVDYGFVGVNLNPDPSGGHWTSPPLSDPYWFPLYEKLVEYDVPAMIHVSTSCNACFHTTGAHYLNADTTAFMQVLTSDLFRRFPTLKFVIPHGGGAVPYHWGRFRGLAQELKTPPLQEHLLHNVFFDTCVYHQPGIDLLTRVIPVDNILFASEMIGAVRGIDPETGHPFDDTRRYIDQAHTLSAEDRHKIYEGNARRVYPRLDARLKARGR | No | No
11 | 97 (protein, listed as Sphingobium sp.) MAMMIIDCHGHYTVLPKAHDEWREQQKAAFKAGQPAPPYPEISDDEIRETIEANQLRLIKERGADMTIFSPRASAMAPHVGDQSVAVPWAQACNNLIARVVDLFPETFAGVCMLPQSPEADMTSSIAELERCVNELGFIGCNLNPDPGGGHFKHPPLTDRFWYPFYEKMVELDVPAMIHVSGSCNPAMHATGAYYLAADTIAFMQLLQGNLFADFPTLRFIIPHGGGAVPYHWGRFRGLADMLKQPSLDTLLMNNVFFDTCVYHQPGINLLADVIDNKNILFGSEMVGAVRGIDPTTGHYFDDTKRYIDALDISDQERHAIFEGNTRRVFPRLDAKLKARGL | No | No
12 | 96 (protein, Aspergillus nidulans) MAPLIVDVHTHVYPPAYMQMLRSRKTVPYVHDPSNNRDPRLIILSSDDDASIPLDQRGRPVDSSYWDINVKLSFMRQHGINCSVISLANPWLDFVEPAEAQMWAERINDDLEKTCATVNKAADPGNTLTLDQKETLFAFGALPLSAPSSESVVAEIKRLKTLEHLRGVIMGTSGLGKGLDDARLDPVWEALQETDMLMFLHPHYGLPEEAYGGPETTGRYGHVLPLALGFPLETTIAVTRMLLSGVFDRFPRLKILLAHSGGTLPFLAGRIESCILHERKFISGGGDVQGPQRSVWDVLKTNIYLDAVVYGKPGLEAAMTASGSDRLLFGTDHPFFPPLDSKDNSWPSVTTNYQAIHATFDTNSKTVADVLGGNAARILNLK | No | No
13 | 105 (protein, Deinococcus radiodurans) MAIDFHVHLDLYPDPVAVARACEERQLTVLSVTTTPAAWRGTLALAAGRPHVWTALGFHPEVVSERAADLPWFDRYLPETRFVGEVGLDGSPSLRGTWTQQFAVFQHILRRCEDHGGRILSIHSRRAESEVLNCLEANPRSGTPILHWYSGSVTELRRAISLGCWFSVGPTMVRTQKGAALIRSMPRDRVLTETDGPFLELDGQAALPWDVKSVVEGLSKIWQIPASEVERIVKENVSRLLGTVR | No | No
14 | 94 (protein, listed as Bacillus thuringiensis) MANRGDSNMKSLVGVIMGSTSDWETMKYACDILDELNIPYEKKVVSAHRTPDYMFEYAETARERGLKVIIAGAGGAAHLPGMVAAKTNLPVIGVPVQSKALNGLDSLLSIVQMPGGVPVATVAIGKAGSTNAGLLAAQILGSFHDDIHDALELRREAIEKDVREGSELV | No | No
15 | 107 (protein, listed as Rhodopseudomonas palustris) MAIIDIHGHYTTAPKALEDWRNRQIAGIKDPSVMPKVSELKISDDELQASIIENQLKKMQERGSDLTVFSPRASFMAHHIGDFNVSSTWAAICNELCYRVSQLFPDNFIGAAMLPQSPGVDPKTCIPELEKCVKEYGFVAINLNPDPSGGHWTSPPLTDRIWYPIYEKMVELEIPAMIHVSTSCNTCFHTTGAHYLNADTTAFMQCVAGDLFKDFPELKFVIPHGGGAVPYHWGRFRGLAQEMKKPLLEDHVLNNIFFDTCVYHQPGIDLLNTVIPVDNVLFASEMIGAVRGIDPRTGFYYDDTKRYIEASTILTPEEKQQIYEGNARRVYPRLDAALKAKGK | No | No
